Laboratory results taken from the Immune Epitope Database (IEDB).
pIC50, pKd: −log10 of the molar value.

Assays:
HLA-A*03:01 [1] = test: IEDB peptide-MHC binding, purified MHC/competitive/fluorescence; filed as Kd, often an IC50 or EC50 that approximates it; ≥ and ≤ were set here for values at or beyond the usual limits of such assays; settings: source organism: Giardia intestinalis ATCC 50581
HLA-B*57:01 = test: as above
HLA-B*46:01 = test: as above
HLA-B*51:01 = test: as above
HLA-A*02:12 [2] = test: as above; settings: source organism: Giardia intestinalis ATCC 50581
HLA-A*24:03 [3] = test: as above
HLA-A*26:01 [4] = test: as above
HLA-B*18:01 = test: as above
HLA-A*02:01 [5] = test: as above
HLA-B*39:01 = test: as above
HLA-B*27:03 = test: as above
HLA-B*15:01 [6] = test: as above
HLA-A*03:01 [7] = test: IEDB peptide-MHC binding, purified MHC/competitive/fluorescence; ≥ and ≤ were set here for values at or beyond the usual limits of such assays; settings: source organism: Zaire ebolavirus
HLA-A*24:02 = test: as above; settings: source organism: Zaire ebolavirus
HLA-A*11:01 [8] = test: as above; settings: source organism: Zaire ebolavirus
HLA-A*69:01 [9] = test: IEDB peptide-MHC binding, purified MHC/competitive/fluorescence; filed as Kd, often an IC50 or EC50 that approximates it; ≥ and ≤ were set here for values at or beyond the usual limits of such assays; settings: source organism: Zaire ebolavirus
HLA-B*15:17 = test: as above; settings: source organism: Zaire ebolavirus
HLA-A*31:01 [10] = test: as above; settings: source organism: Zaire ebolavirus
HLA-A*03:01 [11] = test: IEDB peptide-MHC binding, purified MHC/direct/fluorescence; filed as Kd, often an IC50 or EC50 that approximates it; ≥ and ≤ were set here for values at or beyond the usual limits of such assays
HLA-A*68:02 = test: as above; settings: source organism: Zaire ebolavirus
HLA-A*02:11 = test: as above; settings: source organism: Zaire ebolavirus
HLA-A*02:12 [12] = test: as above; settings: source organism: Zaire ebolavirus
HLA-A*24:03 [13] = test: as above
HLA-A*02:16 = test: as above; settings: source organism: Zaire ebolavirus
HLA-A*02:03 = test: as above; settings: source organism: Zaire ebolavirus
HLA-A*29:02 = test: as above; settings: source organism: Zaire ebolavirus
HLA-A*02:19 = test: as above; settings: source organism: Zaire ebolavirus
HLA-B*07:02 [14] = test: as above
HLA-B*08:01 [15] = test: as above
HLA-A*69:01 [16] = test: as above; settings: source organism: Brucella abortus
HLA-A*11:01 [17] = test: as above; settings: source organism: Brucella abortus
HLA-B*35:01 = test: as above; settings: source organism: Brucella melitensis
HLA-A*31:01 [18] = test: as above; settings: source organism: Brucella abortus
HLA-B*40:01 = test: as above; settings: source organism: Brucella abortus
HLA-B*58:01 = test: as above; settings: source organism: Brucella abortus
HLA-A*26:01 [19] = test: as above
HLA-A*02:01 [20] = test: as above; settings: source organism: Brucella abortus
HLA-B*44:02 = test: as above; settings: source organism: Brucella abortus
HLA-B*27:05 = test: as above; settings: source organism: Brucella abortus
HLA-B*15:01 [21] = test: as above; settings: source organism: Brucella melitensis
HLA-B*07:02 [22] = test: IEDB peptide-MHC binding, purified MHC/competitive/fluorescence; ≥ and ≤ were set here for values at or beyond the usual limits of such assays; settings: source organism: Zaire ebolavirus
HLA-B*08:01 [23] = test: as above; settings: source organism: Zaire ebolavirus
HLA-B*15:01 [24] = test: as above; settings: source organism: Zaire ebolavirus
HLA-A*02:01 [25] = test: as above; settings: source organism: Zaire ebolavirus
[26] = source organism: Giardia intestinalis ATCC 50581
[27] = source organism: Zaire ebolavirus
[28] = source organism: Ebola virus - Eckron (Zaire, 1976)
[29] = source organism: Brucella abortus

| Sequence | pIC50 (HLA-A*03:01 [7]) | pIC50 (HLA-A*24:02) | pKd (HLA-A*69:01 [9]) | pKd (HLA-B*57:01; [27]) | pKd (HLA-B*46:01; [27]) | pKd (HLA-B*51:01; [27]) | pKd (HLA-B*18:01; [27]) | pKd (HLA-A*02:01 [5]; [27]) | pKd (HLA-B*39:01; [27]) | pKd (HLA-B*27:03; [27]) | pKd (HLA-A*68:02) | pKd (HLA-A*02:11) | pKd (HLA-A*02:12 [12]) | pKd (HLA-A*24:03 [13]; [27]) | pKd (HLA-A*02:16) | pKd (HLA-A*02:03) | pKd (HLA-A*02:19) | also measured |
| --- | --- | --- | --- | --- | --- | --- | --- | --- | --- | --- | --- | --- | --- | --- | --- | --- | --- | --- |
| GLYLYRFHV |  |  |  |  |  |  |  |  |  |  |  |  |  |  |  |  |  | pKd (HLA-A*03:01 [1]): ≤ 4.70; pKd (HLA-B*57:01; [26]): ≤ 4.70; pKd (HLA-B*46:01; [26]): ≤ 4.70; pKd (HLA-B*51:01; [26]): ≤ 4.70; pKd (HLA-A*02:12 [2]): 8.26; pKd (HLA-A*24:03 [3]; [26]): ≤ 4.70; pKd (HLA-A*26:01 [4]; [26]): ≤ 4.70; pKd (HLA-B*18:01; [26]): ≤ 4.70; pKd (HLA-A*02:01 [5]; [26]): 8.85; pKd (HLA-B*39:01; [26]): ≤ 4.70; pKd (HLA-B*27:03; [26]): ≤ 4.70; pKd (HLA-B*15:01 [6]; [26]): ≤ 4.70 |
| FYWPVMNHK | 5.33 | 5.01 |  |  |  |  |  |  |  |  |  |  |  |  |  |  |  | pIC50 (HLA-A*11:01 [8]): 5.34 |
| RVPTVFHKK |  |  | ≤ 4.70 | ≤ 4.70 | ≤ 4.70 | ≤ 4.70 | ≤ 4.70 | ≤ 4.70 | ≤ 4.70 | ≤ 4.70 | ≤ 4.70 | ≤ 4.70 | ≤ 4.70 | ≤ 4.70 | ≤ 4.70 | ≤ 4.70 | ≤ 4.70 | pKd (HLA-B*15:17): ≤ 4.70; pKd (HLA-A*31:01 [10]): 7.57; pKd (HLA-A*26:01 [4]; [27]): ≤ 4.70; pKd (HLA-B*15:01 [6]; [27]): ≤ 4.70; pKd (HLA-A*03:01 [11]; source organism: Sudan ebolavirus - Uganda (2000)): 6.62; pKd (HLA-A*29:02): ≤ 4.70 |
| VVRVRRELL |  |  | ≤ 4.70 | ≤ 4.70 | ≤ 4.70 | ≤ 4.70 | ≤ 4.70 | ≤ 4.70 | ≤ 4.70 | ≤ 4.70 | ≤ 4.70 | ≤ 4.70 | ≤ 4.70 | ≤ 4.70 | ≤ 4.70 | ≤ 4.70 | ≤ 4.70 | pKd (HLA-A*26:01 [4]; [27]): ≤ 4.70; pKd (HLA-A*03:01 [11]; [27]): ≤ 4.70; pKd (HLA-B*07:02 [14]; [28]): 5.10; pKd (HLA-B*08:01 [15]; [28]): 5.22 |
| LYIEFTDNM |  |  |  |  |  |  |  |  |  |  |  |  |  |  |  |  |  | pKd (HLA-A*24:03 [3]; source organism: Escherichia coli 536): ≥ 9.00 |
| GYSFSIPGY |  |  |  |  |  |  |  |  |  |  |  |  |  |  |  |  |  | pKd (HLA-A*03:01 [11]; [29]): ≤ 4.70; pKd (HLA-A*69:01 [16]): ≤ 4.70; pKd (HLA-B*07:02 [14]; [29]): ≤ 4.70; pKd (HLA-B*08:01 [15]; [29]): ≤ 4.70; pKd (HLA-A*11:01 [17]): ≤ 4.70; pKd (HLA-B*35:01): 6.33; pKd (HLA-A*31:01 [18]): ≤ 4.70; pKd (HLA-B*40:01): ≤ 4.70; pKd (HLA-A*24:03 [13]; source organism: Brucella melitensis): 5.97; pKd (HLA-B*58:01): ≤ 4.70; pKd (HLA-A*26:01 [19]; [29]): ≤ 4.70; pKd (HLA-A*02:01 [20]): ≤ 4.70; pKd (HLA-B*44:02): ≤ 4.70; pKd (HLA-B*27:05): ≤ 4.70; pKd (HLA-B*15:01 [21]): 6.26 |
| VYRDHSEKK | 4.60 | 4.54 |  |  |  |  |  |  |  |  |  |  |  |  |  |  |  | pIC50 (HLA-A*11:01 [8]): 4.48 |
| TVIYRGTTF |  | 5.90 | ≤ 4.70 | ≤ 4.70 | ≤ 4.70 | ≤ 4.70 | ≤ 4.70 | ≤ 4.70 | ≤ 4.70 | ≤ 4.70 | ≤ 4.70 | ≤ 4.70 | ≤ 4.70 | ≤ 4.70 | ≤ 4.70 | ≤ 4.70 | ≤ 4.70 | pKd (HLA-B*15:01 [6]; [27]): 7.27; pIC50 (HLA-B*07:02 [22]): 4.84; pIC50 (HLA-B*08:01 [23]): 4.34; pIC50 (HLA-B*15:01 [24]): 5.33; pKd (HLA-A*03:01 [11]; [27]): ≤ 4.70; pKd (HLA-A*26:01 [19]; [27]): 6.08; pKd (HLA-A*29:02): ≤ 4.70 |
| FLLMLCLHH | ≤ 3.89 |  |  |  |  |  |  |  |  |  |  |  |  |  |  |  |  | pIC50 (HLA-A*02:01 [25]): 4.91 |
